Patent publication US20260097113A1 (Pfizer, published 2026)

How the values were obtained:
[1] = target: RSV A + RSV B bivalent composition (RSV subtype A; RSV subtype B); assay: AM14 Fab titration by SEC; composition of Table 14; Target lyophilization cycle, T0
[2] = target: RSV A + RSV B bivalent composition (RSV subtype A; RSV subtype B); assay: AM14 Fab titration by SEC; High-Slow 2 cycle; 1 M 2-8°C
[3] = target: RSV A + RSV B bivalent composition (RSV subtype A; RSV subtype B); assay: AM14 Fab titration by SEC; Target cycle; 1 M 2-8°C
[4] = target: RSV A + RSV B bivalent composition (RSV subtype A; RSV subtype B); assay: AM14 Fab titration by SEC; Target cycle; 8 M 40°C
[5] = target: RSV A + RSV B bivalent composition (RSV subtype A; RSV subtype B); assay: AM14 Fab titration by SEC; Target cycle; 1 M 2-8°C (second value)
[6] = target: RSV A + RSV B bivalent composition (RSV subtype A; RSV subtype B); assay: AM14 Fab titration by SEC; Low-Fast cycle; 1 M 2-8°C
[7] = target: T1, RSV F protein of subtype A comprising a polypeptide of SEQ ID NO: 1 and a polypeptide of SEQ ID NO: 2 (RSV subtype A, UniProt P11209 137-513; P03420 26-109); assay: AM14 ELISA; F19 (pH 7, 50 mM NaCl, 3% trehalose + 3% mannitol); 1 wk 25°C
T1 construct: Stabilized prefusion F trimer made of three F2-F1 heterodimers; Produced recombinantly in CHO cells; also called RSV A; RSVA
T1 chain 1: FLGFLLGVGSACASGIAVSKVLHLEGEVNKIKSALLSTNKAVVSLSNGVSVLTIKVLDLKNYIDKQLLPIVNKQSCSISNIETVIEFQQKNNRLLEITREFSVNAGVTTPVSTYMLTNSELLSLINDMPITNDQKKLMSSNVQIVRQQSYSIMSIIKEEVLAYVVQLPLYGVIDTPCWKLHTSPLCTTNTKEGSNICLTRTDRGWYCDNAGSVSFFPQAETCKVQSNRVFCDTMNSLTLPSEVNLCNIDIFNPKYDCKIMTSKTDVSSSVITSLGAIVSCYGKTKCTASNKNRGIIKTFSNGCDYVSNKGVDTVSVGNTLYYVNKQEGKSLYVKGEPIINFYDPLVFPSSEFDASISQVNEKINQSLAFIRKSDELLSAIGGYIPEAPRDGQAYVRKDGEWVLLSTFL
T1 chain 2: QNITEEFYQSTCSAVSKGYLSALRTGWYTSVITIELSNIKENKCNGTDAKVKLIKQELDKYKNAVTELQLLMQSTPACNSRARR

[8] = target: T2, RSV F protein comprising a polypeptide of SEQ ID NO: 3 and a polypeptide of SEQ ID NO: 4 (RSV subtype B, UniProt O36634 137-513; O36634 26-109); assay: AM14 prefusion assay relative to standard; RSV B 480 µg/mL, 2% sucrose + 4% mannitol; pre-lyo
T2 construct: also called RSV B; RSVB
T2 chain 1: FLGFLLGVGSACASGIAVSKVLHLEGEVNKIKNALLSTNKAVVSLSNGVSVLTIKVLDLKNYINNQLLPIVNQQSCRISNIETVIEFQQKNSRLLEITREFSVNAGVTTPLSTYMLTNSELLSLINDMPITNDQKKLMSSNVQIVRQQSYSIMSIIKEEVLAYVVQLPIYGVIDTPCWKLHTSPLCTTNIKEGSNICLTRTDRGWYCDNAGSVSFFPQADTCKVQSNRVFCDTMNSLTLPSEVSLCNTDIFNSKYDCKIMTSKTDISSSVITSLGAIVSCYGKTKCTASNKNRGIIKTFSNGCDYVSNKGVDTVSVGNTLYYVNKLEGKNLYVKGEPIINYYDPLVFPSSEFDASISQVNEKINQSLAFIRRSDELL
T2 chain 2: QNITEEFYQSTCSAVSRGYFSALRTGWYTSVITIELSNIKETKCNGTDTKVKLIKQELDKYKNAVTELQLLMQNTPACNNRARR

[9] = target: T1, RSV F protein of subtype A comprising a …; assay: AM14 ELISA; F16 (pH 6, 0 mM NaCl, 0% sucrose); T0
[10] = target: T1, RSV F protein of subtype A comprising a …; assay: AM14 ELISA; F7 (pH 6, 100 mM NaCl, 0% sucrose); 1 wk 25°C
[11] = target: T1, RSV F protein of subtype A comprising a …; assay: AM14 ELISA; F15 (pH 6, 0 mM NaCl, 9% sucrose); 1 wk 5°C
[12] = target: T1, RSV F protein of subtype A comprising a …; assay: AM14 ELISA; F15 (pH 6, 0 mM NaCl, 9% sucrose); T0
[13] = target: T1, RSV F protein of subtype A comprising a …; assay: AM14 ELISA; F4 (pH 6, 50 mM NaCl, 4.5% sucrose); 2 wk 5°C
[14] = target: T1, RSV F protein of subtype A comprising a …; assay: AM14 ELISA; F18 (pH 7, 50 mM NaCl, 3% sucrose + 3% mannitol); T0
[15] = target: T1, RSV F protein of subtype A comprising a …; assay: AM14 ELISA; F17 (pH 7, 50 mM NaCl, 4.5% trehalose); 1 wk 25°C

Molecule: AM14 Fab
- Prefusion Content (%) [1]: 80%
- Prefusion Content (%) [2]: 68%
- Prefusion Content (%) [3]: 59%
- Prefusion Content (%) [4]: 67%
- Prefusion Content (%) [5]: 69%
- Prefusion Content (%) [6]: 53%

B1: AM14 (trimeric prefusion specific antibody of the AM14 ELISA) (antibody, V domains shown)
VH: EVQLVESGGGVVQPGRSLRLSCAASGFSFSHYAMHWVRQAPGKGLEWVAVISYDGENTYYADSVKGRFSISRDNSKNTVSLQMNSLRPEDTALYYCARDRIVDDYYYYGMDVWGQGATVTVSS
VL: DIQMTQSPSSLSASVGDRVTITCQASQDIKKYLNWYHQKPGKVPELLMHDASNLETGVPSRFSGRGSGTDFTLTISSLQPEDIGTYYCQQYDNLPPLTFGGGTKVEIKR
notes: Antibody as used in the AM14 ELISA, detected with an HRP-labeled secondary antibody
- AM14 prefusion content (%), relative to standard [7]: 75%
- AM14 prefusion content (%), relative to standard [8]: 90%
- AM14 prefusion content (%), relative to standard [9]: 80%
- AM14 prefusion content (%), relative to standard [10]: 75%
- AM14 prefusion content (%), relative to standard [11]: 86%
- AM14 prefusion content (%), relative to standard [12]: 106%
- AM14 prefusion content (%), relative to standard [13]: 62%
- AM14 prefusion content (%), relative to standard [14]: 91%
- AM14 prefusion content (%), relative to standard [15]: 105%
